The target in data set [1] is T1, Lys(Dnp)-ATNATVEPRIVGG-Lys(Abz).
T1 chain: KATNATVEPRIVGGK

In data set [2] the target is T2, Lys(Dnp)-ATNATTPPRIVGG-Lys(Abz).
T2 chain: KATNATTPPRIVGGK

In data set [3] the target is T3, Lys(Dnp)-ATNATVAPRIVGG-Lys(Abz).
T3 chain: KATNATVAPRIVGGK

The target of data set [4] is T4, Lys(Dnp)-ATNATWYPRIVGG-Lys(Abz).
T4 chain: KATNATWYPRIVGGK

For data set [5], the target named is T5, Lys(Dnp)-ATNATRGPRIVGG-Lys(Abz).
T5 chain: KATNATRGPRIVGGK

Data set [6] has as its target T6, Lys(Dnp)-ATNATVGPRIVGG-Lys(Abz).
T6 chain: KATNATVGPRIVGGK

In data set [7] the target is T7, Lys(Dnp)-ATNATEYPRIVGG-Lys(Abz).
T7 chain: KATNATEYPRIVGGK

B1: Human plasma purified Factor Xa (Molecular Innovations, Inc) (protein)
chain 1: ANSFLEEMKKGHLERECMEETCSYEEAREVFEDSDKTNEFWNKYKDGDQCETSPCQNQGKCKDGLGEYTCTCLEGFEGKNCELFTRKLCSLDNGDCDQFCHEEQNSVVCSCARGYTLADNGKACIPTGPYPCGKQTLER
chain 2: IVGGQECKDGECPWQALLINEENEGFCGGTILSEFYILTAAHCLYQAKRFKVRVGDRNTEQEEGGEAVHEVEVVIKHNRFTKETYDFDIAVLRLKTPITFRMNVAPACLPERDWAESTLMTQKTGIVSGFGRTHEKGRQSTRLKMLEVPYVDRNSCKLSSSFIITQNMFCAGYDTKQEDACQGDSGGPHVTRFKDTYFVTGIVSWGEGCARKGKYGIYTKVTAFLKWIDRSMKTRGLPKAKSHAPEVITSSPLK
As to B1, the FXa kcat/KM in data set [1] came out at 110 M⁻¹ s⁻¹; in data set [2] it was 72 M⁻¹ s⁻¹; in data set [3], 62 M⁻¹ s⁻¹; in data set [4], 60 M⁻¹ s⁻¹; in data set [5], 680 M⁻¹ s⁻¹; in data set [6] it was 49 M⁻¹ s⁻¹. The protein also showed an FXa kcat/KM in data set [7] of 15 M⁻¹ s⁻¹.

These data come from patent US20160024487.
